# Measurements published in patent US5792629A, “Isolated DNA encoding novel protease inhibitory polypeptide” (Mochida Pharmaceutical Co., Ltd., priority 1990, dated 1998).
# Columns and labels:
# Human trypsin = target: T1, Human trypsin (Homo sapiens, UniProt P07477); test: Human trypsin-inhibiting activity, substrate S-2444; type: biochemical; details: purified sample, various concentrations; remaining activity vs buffer control (FIG. 14A-C)
# T1 construct: purchased Calbiochem
# Method: The purified sample obtained in Example 1-(5) was dissolved in 100 μl of distilled water. Concentration of this solution was determined based on its bovine trypsin-inhibiting activity using the aforementioned UTI as a standard. The solution was then diluted to various concentration levels with 0.1% BSA/0.2M triethanolamine-HCl buffer (pH 7.8) for the activity measurement. The aforementioned UTI was also diluted in the same manner.
# Using the aforementioned synthetic compound S-2444 as a substrate, human trypsin-inhibiting activities of the diluted test samples and the positive control were measured in accordance with the method of Kassell (Kassell B., Methods in Enzymol., vol 19, pp.84-852, 1970) as follows.
# Human trypsin (Calbiochem) was dissolved in 0.001M HCl to a concentration of 1,000 SU/ml and the solution was further diluted with 0.1% BSA/0.2M triethanolamine-HCl buffer (pH 7.8) to prepare 1.25 SU/ml of trypsin solution. 2 mM solution of S-2444 was prepared by dissolving it in distilled water.
# (§1) Next, 100 μl of the test sample or positive control was mixed with 100 μl of the trypsin solution. After incubation at 37° C. for 10 minutes, 50 μl of the S-2444 solution was added to the mixture to start the reaction. The reaction was carried out at 37° C. for 20 minutes and then stopped by adding 50 μl of 50% acetic acid solution to the reaction mixture. Thereafter, absorbance at 405 nm was measured using a spectrophotometer.
# In this instance, in order to eliminate absorbance of various solutions in the reaction mixture, a blank solution was prepared by mixing 100 μl of the trypsin solution with 50 μl of 50% acetic acid and then with 100 μl of each test sample or the positive control and with 50 μl of the S-2444 solution.
# In this figure, human trypsin remaining activity was expressed by percentage based on the absorbance of a control reaction mixture in which 100 μl of 0.1% BSA/0.2M triethanolamine-HCl buffer (pH 7.8) was used instead of the test sample or the positive control.
# Human plasma plasmin = target: T2, Human plasma plasmin (Homo sapiens, UniProt P00747); test: Plasmin-inhibiting activity, substrate S-2251; type: biochemical; details: purified sample, various concentrations; remaining activity vs buffer control (FIG. 16A-C)
# T2 construct: Human plasma plasmin (Sigma Chemical Co.) was dissolved in physiological saline; purchased Sigma Chemical Co; host or cells: human plasma
# Method: The purified sample obtained in Example 1-(5) was dissolved in 100 μl of distilled water. Concentration of this solution was determined based on its bovine trypsin-inhibiting activity using the aforementioned UTI as a standard. The solution was then diluted to various concentration levels with 0.11M NaCl/50 mM Tris-HCl buffer (pH 7.4) for use in the activity measurement. The UTI was also diluted in the same manner. Using a synthetic compound S-2251 (Daiichi Pure Chemicals Co., Ltd.) as a substrate, human plasmin-inhibiting activities of the diluted test samples and the positive control were measured in accordance with the method of Friberger et al. (Friberger,P. et al., Haemostasis, vol.7, pp.138-145, 1978).
# Human plasma plasmin (Sigma Chemical Co.) was dissolved in physiological saline to a concentration of 1 U/ml and the solution was further diluted with 50% glycerol/2 mM HCl solution to prepare 0.1 U/ml of plasmin solution. 3.5 mM solution of S-2251 was prepared by dissolving it in distilled water.
# as §1, with “Next, 50” for “Next, 100”, “with 50 μl of the plasmin solution and” for “with”, “of 0.11M NaCl/50 mM Tris-HCl buffer (pH 7.4).” for “of the trypsin solution.”, “the S-2251” for “the S-2444”, “for 2” for “for 20”, “adding 25” for “adding 50”
# In this instance, in order to eliminate absorbance of various solutions in the reaction mixture, a blank solution was prepared by mixing 50 μl of the plasmin solution with 25 μl of 50% acetic acid and then with 50 μl of each test sample or the positive control, 100 μl of 0.11M NaCl/50 mM Tris-HCl buffer (pH 7.4) and with 50 μl of the S-2251 solution.
# In this figure, human plasmin remaining activity was expressed by percentage based on the absorbance of a control reaction mixture in which 50 μl of 0.11M NaCl/50 mM Tris-HCl buffer (pH 7.4) was used instead of the test sample or the positive control.
# T2 sequence (P00747 97-810): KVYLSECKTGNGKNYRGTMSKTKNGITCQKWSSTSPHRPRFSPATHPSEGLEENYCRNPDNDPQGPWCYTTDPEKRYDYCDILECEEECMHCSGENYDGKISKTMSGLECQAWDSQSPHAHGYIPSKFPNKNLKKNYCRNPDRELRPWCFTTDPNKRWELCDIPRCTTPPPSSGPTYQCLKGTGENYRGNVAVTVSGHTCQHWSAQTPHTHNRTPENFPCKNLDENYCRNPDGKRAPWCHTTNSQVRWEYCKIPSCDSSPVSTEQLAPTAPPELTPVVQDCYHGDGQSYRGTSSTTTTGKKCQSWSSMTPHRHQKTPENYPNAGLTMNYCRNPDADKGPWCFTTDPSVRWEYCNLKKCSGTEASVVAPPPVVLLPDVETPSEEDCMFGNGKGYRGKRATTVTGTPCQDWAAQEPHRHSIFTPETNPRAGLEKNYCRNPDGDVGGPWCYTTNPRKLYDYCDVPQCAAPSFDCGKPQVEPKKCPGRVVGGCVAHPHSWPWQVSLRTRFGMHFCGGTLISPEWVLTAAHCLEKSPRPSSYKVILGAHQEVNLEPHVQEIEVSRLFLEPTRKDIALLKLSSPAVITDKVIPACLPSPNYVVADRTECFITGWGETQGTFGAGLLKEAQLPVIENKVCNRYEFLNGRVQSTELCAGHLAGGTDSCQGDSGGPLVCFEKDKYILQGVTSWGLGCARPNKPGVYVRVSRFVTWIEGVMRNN
Molecule,human trypsin-inhibiting activity (Human trypsin),human plasmin-inhibiting activity (Human plasma plasmin)
"CC51: polypeptide defined by the amino acid sequence of formula 1, purified from culture supernatant of E. coli JE5505 (pM560) (CNLPIVRGPCRAFIQLWAFDAVKGKCVLFPYGGCQGNGNKFYSEKECREYC)",activity was found,activity was found
"TL66: polypeptide defined by formula 8; known enzyme-digested fragment of urinary trypsin inhibitor, made in E. coli JE5505 (pM551) (protein) TVAACNLPIVRGPCRAFIQLWAFDAVKGKCVLFPYGGCQGNGNKFYSEKECREYCGVPGDGDEELL",activity was found,activity was found

# Now from value to molecule:
human trypsin-inhibiting activity (Human trypsin),human plasmin-inhibiting activity (Human plasma plasmin),Molecule
activity was found,activity was found,"UTI: urinary trypsin inhibitor purified from human urine (Mochida Pharmaceutical), used as positive control (protein, glycoprotein (sugar moieties, as the filing says in general of UTI)) AVLPQEEEGSGGGQLVTEVTKKEDSCQLGYSAGPCMGMTSRYFYNGTSMACETFQYGGCMGNGNNFVTEKECLQTCRTVAACNLPIVRGPCRAFIQLWAFDAVKGKCVLFPYGGCQGNGNKFYSEKECREYCGVPGDGDEELLRFSN"
activity was found,activity was found,"TN70: polypeptide defined by the amino acid sequence of formula 3, purified from culture supernatant of E. coli JE5505 (pM552) (protein) TVAACNLPIVRGPCRAFIQLWAFDAVKGKCVLFPYGGCQGNGNKFYSEKECREYCGVPGDGDEELLRFSN"
